Patent publication US7521047 (GPC BIOTECH, dated 2009)
Substitutions are numbered along the chain they refer to. Values belong to the binder of their own block, whether it stands above or below them.

Assays:
[1] = biological target: T1, HLA-DR (DRA*0101/DRB1*0401) on PRIESS cells (human, UniProt P01903 26-254; P01911 30-266); experiment: cell-based or functional assay
T1 MHC II alpha: not shown
T1 MHC II beta: not shown

[2] = biological target: T2, human MHC class II DR protein (DRA*0101/DRB1*0401), purified from PRIESS cells (human, UniProt P01903 26-254; P01911 30-266, limits assumed); experiment: SPR (BIAcore), Fab, 8 preparations on 4 chips
T2 construct: mature; also called HLA-DR protein; MHCII
T2 MHC II alpha: not shown
T2 MHC II beta: not shown

[3] = biological target: T2, human MHC class II DR protein …; experiment: SPR (BIAcore), MHCII on CM5 chip
[4] = biological target: T2, human MHC class II DR protein …; experiment: BiaCore, Fab
HLA-DR on BONNA-12 cells = HLA-DR on BONNA-12 cells (human); experiment: cell-based or functional assay
HLA-DR on BJAB cells = HLA-DR on BJAB cells (human); experiment: cell-based or functional assay
HLA-DR on MN-60 cells = HLA-DR on MN-60 cells (human); experiment: cell-based or functional assay
[5] = biological target: HLA-DR on MHH-CALL-4 cells (human); experiment: cell-based or functional assay
[6] = biological target: T1, HLA-DR (DRA*0101/DRB1*0401) on PRIESS …; experiment: cell-based or functional assay
[7] = biological target: T2, human MHC class II DR protein …; experiment: ELISA, coated antigen, Fab 100 ng/well, read at 370 nm
Method: After washing in PBS the anti-human IgG F(ab')_2-peroxidase-conjugate at a 1:10,000 dilution in TBS (supplemented with 5% w/v non-fat drymilk/0.05% v/v Tween 20) was added to each well for 1 h. Final washes were carried out in PBS followed the addition the substrate POD (Roche).

[8] = biological target: chimeric 0401-IE class II molecule on cells of transgenic mice (human/murine chimera); experiment: cell-based or functional assay
[9] = biological target: T2, human MHC class II DR protein …; experiment: BiaCore, Fab
[10] = biological target: T2, human MHC class II DR protein …; experiment: SPR (BIAcore), chip density 4000 RU MHCII

Kd [2]: 346 nM
koff [2]: 0.029 s⁻¹
kon [2]: 99000 M⁻¹ s⁻¹
Kd [3]: 346 nM
koff [3]: 0.029 s⁻¹
kon [3]: 99000 M⁻¹ s⁻¹
Kd [4]: 346 nM
koff [4]: 0.029 s⁻¹
kon [4]: 99000 M⁻¹ s⁻¹
ELISA signal [7]: 1.06
IC50 of inhibition of IL-2 secretion from T-Hyb 1 cells [8]: 110 nM (half the concentration of the Fab)
Maximum inhibition(%) of IL-2 secretion [8]: 100%
B1: MS-GPC-8 Fab (Fab, V domains shown)
VH: QVQLKESGPALVKPTQTLTLTCTFSGFSLSTSGVGVGWIRQPPGKALEWLALIDWDDDKYYSTSLKTRLTISKDTSKNQVVLTMTNMDPVDTATYYCARSPRYRGAFDYWGQGTLVTVSS
VL: DIVLTQPPSVSGAPGQRVTISCSGSSSNIGSNYVSWYQQLPGTAPKLLIYDNNQRPSGVPDRFSGSKSGTSASLAITGLQSEDEADYYCQSYDMPQAVFGGGTKLTVLG
notes: Fab from pMx9_Fab: VH-CH1 with FLAG tag and STREP tag II, VL-CL; VH residue 1 is Q in Fab; also called B8-Fab; B8
EC50 of cell killing, cross-linked Fab, bivalent agent [1]: 31 nM
cell killing, cross-linked Fab, 4 h (HLA-DR on BONNA-12 cells): > 50%
cell killing, cross-linked Fab, 4 h (HLA-DR on BJAB cells): > 50%
cell killing, cross-linked Fab, 4 h (HLA-DR on MN-60 cells): > 50%
cell killing, cross-linked Fab, 4 h [5]: > 50%
maximum capacity to kill MHH-Call 4 cells [5]: 65%
maximum killing capacity, cross-linked bivalent fragment [6]: 84%

Kd [3]: 54.7 nM
koff [3]: 0.00548 s⁻¹
kon [3]: 100000 M⁻¹ s⁻¹
Kd [4]: 58.6 nM
koff [4]: 0.00548 s⁻¹
kon [4]: 96000 M⁻¹ s⁻¹
fold affinity improvement compared to MS-GPC-8/B8 [9]: 5 fold
Kd [10]: 54.7 nM
koff [10]: 0.00548 s⁻¹
kon [10]: 100000 M⁻¹ s⁻¹
B2: MS-GPC-8-17 Fab (Fab, V domains shown)
VH: B1 VH
VL: B1 VL with M94F, P95S, Q96V, A97Y
notes: Fab: VH-CH1 with FLAG tag and STREP tag II, VL-CL; VH residue 1 is Q in Fab; also called 7BA
EC50 of cell killing, cross-linked Fab, bivalent agent [1]: 16 nM
maximum capacity to kill MHH-Call 4 cells [5]: 78%
